This data set has as its system Escherichia coli TOP10. As to the kind of experiment: shrunken log2 fold change of peptide-encoding DNA abundance (4.5 h post-induction vs induction); higher = less antimicrobial activity (less host growth inhibition). Conditions: time post-induction: 4.5 h; library: site-saturation at positions 5, 18, 19, 20.
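Note: peptides expressed intracellularly from a pBAD plasmid library in pooled LB shake-flask culture, induced with 0.3% L-arabinose, DNA abundance read by NGS, three biological replicates, DESeq2 with apeglm shrinkage.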

In the case of RRIRSRPPRLPRPRPRPSVCPRP, the “shrunken log2 fold change” value is 0.0526.

As to RRIRLRPPRLPRPRPRPALRPRP, the “shrunken log2 fold change” value turned out to be 0.178.

For the sequence RRIRFRPPRLPRPRPRPAPFPRP, the “shrunken log2 fold change” value was -0.236.

With RRIRPRPPRLPRPRPRPSHGPRP, the “shrunken log2 fold change” value is 0.108.

Consider RRIRHRPPRLPRPRPRPLDEPRP, for which the “shrunken log2 fold change” value is -0.0217.

For RRIRPRPPRLPRPRPRPGKPPRP, the “shrunken log2 fold change” value came to 0.306.

For the sequence RRIRMRPPRLPRPRPRPFTCPRP, the “shrunken log2 fold change” value is -0.173.

For the sequence RRIRRRPPRLPRPRPRPWVFPRP, the “shrunken log2 fold change” value was -0.106.

For the sequence RRIRQRPPRLPRPRPRPEVGPRP, the “shrunken log2 fold change” value was -0.0239.

For RRIRARPPRLPRPRPRPNQVPRP, the “shrunken log2 fold change” value is -0.0439.

RRIRTRPPRLPRPRPRPHICPRP: the “shrunken log2 fold change” value was -0.13.

With RRIRMRPPRLPRPRPRPMMMPRP, the “shrunken log2 fold change” value was -0.0717.

RRIRRRPPRLPRPRPRPDMFPRP: the “shrunken log2 fold change” value was 0.0219.

Consider RRIRYRPPRLPRPRPRPPNNPRP, for which the “shrunken log2 fold change” value is -0.708.

For RRIRSRPPRLPRPRPRPLKQPRP, the “shrunken log2 fold change” value was -0.0432.

As to RRIRLRPPRLPRPRPRPNWSPRP, the “shrunken log2 fold change” value was -0.136.

RRIRVRPPRLPRPRPRPYDQPRP: the “shrunken log2 fold change” value is -0.192.

Consider RRIRWRPPRLPRPRPRPQRVPRP, for which the “shrunken log2 fold change” value turned out to be 2.3.

In the case of RRIRPRPPRLPRPRPRPWEYPRP, the “shrunken log2 fold change” value was -0.05.

Regarding RRIRVRPPRLPRPRPRPLIRPRP, the “shrunken log2 fold change” value is -0.352.

For the sequence RRIRFRPPRLPRPRPRPSFDPRP, the “shrunken log2 fold change” value is -0.62.

RRIRERPPRLPRPRPRPYPGPRP: the “shrunken log2 fold change” value is -0.379.

In the case of RRIRSRPPRLPRPRPRPIRDPRP, the “shrunken log2 fold change” value came out at 0.156.

RRIRKRPPRLPRPRPRPDYYPRP: the “shrunken log2 fold change” value is 0.0521.

With RRIRLRPPRLPRPRPRPVSNPRP, the “shrunken log2 fold change” value was -0.837.

RRIRCRPPRLPRPRPRPRHRPRP: the “shrunken log2 fold change” value was -0.466.

RRIRERPPRLPRPRPRPTHEPRP: the “shrunken log2 fold change” value came to 0.317.

On to RRIRHRPPRLPRPRPRPLYKPRP, for which the “shrunken log2 fold change” value is -0.272.

On to RRIRHRPPRLPRPRPRPWCRPRP, for which the “shrunken log2 fold change” value is -0.352.

Turning to RRIRLRPPRLPRPRPRPCAGPRP, the “shrunken log2 fold change” value turned out to be 0.0736.

As to RRIRDRPPRLPRPRPRPNQAPRP, the “shrunken log2 fold change” value is -0.0261.

As to RRIRWRPPRLPRPRPRPDSGPRP, the “shrunken log2 fold change” value is -0.0735.

For RRIRFRPPRLPRPRPRPDGLPRP, the “shrunken log2 fold change” value is 0.00785.

Take RRIRNRPPRLPRPRPRPDYNPRP: the “shrunken log2 fold change” value was -0.782.

On to RRIRWRPPRLPRPRPRPWQLPRP, for which the “shrunken log2 fold change” value is -0.18.

As to RRIRVRPPRLPRPRPRPDPWPRP, the “shrunken log2 fold change” value amounted to 0.131.

As to RRIRHRPPRLPRPRPRPLHDPRP, the “shrunken log2 fold change” value was -0.277.

Consider RRIRPRPPRLPRPRPRPNDNPRP, for which the “shrunken log2 fold change” value was -0.533.

RRIRIRPPRLPRPRPRPWKMPRP: the “shrunken log2 fold change” value is -1.13.

Consider RRIRRRPPRLPRPRPRPWSSPRP, for which the “shrunken log2 fold change” value was determined as 0.0446.

As to RRIRSRPPRLPRPRPRPHAMPRP, the “shrunken log2 fold change” value is -0.376.

As for RRIRWRPPRLPRPRPRPYGYPRP, the “shrunken log2 fold change” value is -0.345.

As for RRIRYRPPRLPRPRPRPMVNPRP, the “shrunken log2 fold change” value was -0.0376.

With RRIRIRPPRLPRPRPRPGRNPRP, the “shrunken log2 fold change” value was 0.0581.

Regarding RRIRPRPPRLPRPRPRPWRYPRP, the “shrunken log2 fold change” value was -0.0238.

RRIRRRPPRLPRPRPRPGTIPRP: the “shrunken log2 fold change” value was -0.502.

Take RRIRWRPPRLPRPRPRPFAHPRP: the “shrunken log2 fold change” value is -0.0296.

As for RRIRIRPPRLPRPRPRPYPHPRP, the “shrunken log2 fold change” value was -1.02.

Regarding RRIRPRPPRLPRPRPRPFKPPRP, the “shrunken log2 fold change” value is -0.387.

Regarding RRIRKRPPRLPRPRPRPMADPRP, the “shrunken log2 fold change” value was -0.000921.

Take RRIRIRPPRLPRPRPRPGCGPRP: the “shrunken log2 fold change” value is 0.349.

Take RRIRVRPPRLPRPRPRPWARPRP: the “shrunken log2 fold change” value is 0.416.

Regarding RRIRFRPPRLPRPRPRPWNSPRP, the “shrunken log2 fold change” value was -0.976.

On to RRIRERPPRLPRPRPRPYPYPRP, for which the “shrunken log2 fold change” value is -0.372.

With RRIRPRPPRLPRPRPRPGFLPRP, the “shrunken log2 fold change” value was determined as 0.167.

For RRIRWRPPRLPRPRPRPIWPPRP, the “shrunken log2 fold change” value turned out to be 0.684.

For the sequence RRIRWRPPRLPRPRPRPLDGPRP, the “shrunken log2 fold change” value is 0.15.

In the case of RRIRQRPPRLPRPRPRPVRFPRP, the “shrunken log2 fold change” value amounted to 0.728.

As for RRIRNRPPRLPRPRPRPTFRPRP, the “shrunken log2 fold change” value is -0.22.

Consider RRIRGRPPRLPRPRPRPHTSPRP, for which the “shrunken log2 fold change” value was -0.00444.

For RRIRCRPPRLPRPRPRPNDWPRP, the “shrunken log2 fold change” value is -0.166.

As to RRIRLRPPRLPRPRPRPDNTPRP, the “shrunken log2 fold change” value was -0.386.

Regarding RRIRMRPPRLPRPRPRPKRQPRP, the “shrunken log2 fold change” value was found to be 0.0602.

For the sequence RRIRYRPPRLPRPRPRPLLHPRP, the “shrunken log2 fold change” value is -0.541.

With RRIRCRPPRLPRPRPRPQFRPRP, the “shrunken log2 fold change” value was -0.434.

RRIRQRPPRLPRPRPRPGPQPRP: the “shrunken log2 fold change” value was 0.722.

On to RRIRHRPPRLPRPRPRPYFHPRP, for which the “shrunken log2 fold change” value is -0.955.

RRIRRRPPRLPRPRPRPRDTPRP: the “shrunken log2 fold change” value was 0.6.

Consider RRIRGRPPRLPRPRPRPHAVPRP, for which the “shrunken log2 fold change” value came to 0.657.

Take RRIRMRPPRLPRPRPRPTDMPRP: the “shrunken log2 fold change” value is 0.0845.

Regarding RRIRCRPPRLPRPRPRPFSSPRP, the “shrunken log2 fold change” value was -0.24.

Consider RRIRHRPPRLPRPRPRPPIIPRP, for which the “shrunken log2 fold change” value is -0.183.

As to RRIRGRPPRLPRPRPRPQICPRP, the “shrunken log2 fold change” value is 0.156.

Regarding RRIRRRPPRLPRPRPRPDFDPRP, the “shrunken log2 fold change” value is 0.291.

As for RRIRHRPPRLPRPRPRPAKGPRP, the “shrunken log2 fold change” value came to 0.0449.

On to RRIRFRPPRLPRPRPRPQVLPRP, for which the “shrunken log2 fold change” value was -0.00198.

Take RRIRTRPPRLPRPRPRPLWHPRP: the “shrunken log2 fold change” value was -0.221.

Take RRIRMRPPRLPRPRPRPIPCPRP: the “shrunken log2 fold change” value worked out at 0.02.

As for RRIRQRPPRLPRPRPRPTKAPRP, the “shrunken log2 fold change” value stood at 0.0785.

Consider RRIRLRPPRLPRPRPRPGWCPRP, for which the “shrunken log2 fold change” value was 0.191.

With RRIRARPPRLPRPRPRPVHHPRP, the “shrunken log2 fold change” value is -0.0524.

RRIRPRPPRLPRPRPRPYEMPRP: the “shrunken log2 fold change” value is -0.281.

For RRIRKRPPRLPRPRPRPENVPRP, the “shrunken log2 fold change” value was -0.00931.

In the case of RRIRWRPPRLPRPRPRPQSKPRP, the “shrunken log2 fold change” value is -0.0549.

For RRIRIRPPRLPRPRPRPQADPRP, the “shrunken log2 fold change” value is -0.0941.

Turning to RRIRGRPPRLPRPRPRPIDPPRP, the “shrunken log2 fold change” value was -0.0473.

Regarding RRIRSRPPRLPRPRPRPFCLPRP, the “shrunken log2 fold change” value was -0.302.

For the sequence RRIRRRPPRLPRPRPRPCKRPRP, the “shrunken log2 fold change” value came to 0.0349.

As to RRIRRRPPRLPRPRPRPCIYPRP, the “shrunken log2 fold change” value was 0.0603.

For RRIRDRPPRLPRPRPRPVIPPRP, the “shrunken log2 fold change” value is 0.471.

RRIRKRPPRLPRPRPRPHLMPRP: the “shrunken log2 fold change” value was -0.129.

Turning to RRIRQRPPRLPRPRPRPGTAPRP, the “shrunken log2 fold change” value came out at 0.206.

As for RRIRKRPPRLPRPRPRPPHVPRP, the “shrunken log2 fold change” value stood at 0.498.

With RRIRARPPRLPRPRPRPWWKPRP, the “shrunken log2 fold change” value is -0.00149.

For the sequence RRIRCRPPRLPRPRPRPAPEPRP, the “shrunken log2 fold change” value was found to be 0.766.

On to RRIRDRPPRLPRPRPRPTMKPRP, for which the “shrunken log2 fold change” value is 0.192.

Regarding RRIRWRPPRLPRPRPRPTISPRP, the “shrunken log2 fold change” value worked out at 0.21.

With RRIRARPPRLPRPRPRPAHWPRP, the “shrunken log2 fold change” value was found to be 0.535.

With RRIRSRPPRLPRPRPRPFVKPRP, the “shrunken log2 fold change” value is -0.222.

On to RRIRLRPPRLPRPRPRPSHGPRP, for which the “shrunken log2 fold change” value is -0.0685.

Regarding RRIRIRPPRLPRPRPRPDEWPRP, the “shrunken log2 fold change” value was -0.0975.

As to RRIRMRPPRLPRPRPRPQWNPRP, the “shrunken log2 fold change” value was -0.149.

As to RRIRLRPPRLPRPRPRPHEFPRP, the “shrunken log2 fold change” value was -0.0833.

On to RRIRSRPPRLPRPRPRPYVRPRP, for which the “shrunken log2 fold change” value was -0.0846.

For the sequence RRIRIRPPRLPRPRPRPMGQPRP, the “shrunken log2 fold change” value was -0.077.

For RRIRHRPPRLPRPRPRPGREPRP, the “shrunken log2 fold change” value stood at 0.0529.

For RRIRARPPRLPRPRPRPHMRPRP, the “shrunken log2 fold change” value worked out at 0.669.

Take RRIRGRPPRLPRPRPRPLPDPRP: the “shrunken log2 fold change” value was 0.926.

As to RRIRSRPPRLPRPRPRPTCVPRP, the “shrunken log2 fold change” value worked out at 0.0671.

RRIRDRPPRLPRPRPRPMLWPRP: the “shrunken log2 fold change” value turned out to be 0.015.

With RRIRDRPPRLPRPRPRPQLPPRP, the “shrunken log2 fold change” value worked out at 0.186.

Turning to RRIRTRPPRLPRPRPRPSMPPRP, the “shrunken log2 fold change” value is -0.363.

Regarding RRIRHRPPRLPRPRPRPTVVPRP, the “shrunken log2 fold change” value is -0.00918.

For the sequence RRIRPRPPRLPRPRPRPHGIPRP, the “shrunken log2 fold change” value is 0.0828.

As for RRIRHRPPRLPRPRPRPDMTPRP, the “shrunken log2 fold change” value was -0.06.

As for RRIRHRPPRLPRPRPRPNPRPRP, the “shrunken log2 fold change” value is -0.0621.

As for RRIRMRPPRLPRPRPRPAQWPRP, the “shrunken log2 fold change” value is 0.533.

As to RRIRHRPPRLPRPRPRPPNHPRP, the “shrunken log2 fold change” value was -0.442.

RRIRDRPPRLPRPRPRPECNPRP: the “shrunken log2 fold change” value is 0.741.

As to RRIRFRPPRLPRPRPRPDVLPRP, the “shrunken log2 fold change” value was -0.0865.

As to RRIRFRPPRLPRPRPRPPVNPRP, the “shrunken log2 fold change” value came out at 0.147.

RRIRKRPPRLPRPRPRPSQRPRP: the “shrunken log2 fold change” value stood at 0.231.

For RRIRVRPPRLPRPRPRPNPEPRP, the “shrunken log2 fold change” value was -0.286.

As for RRIRWRPPRLPRPRPRPQFCPRP, the “shrunken log2 fold change” value is -0.0503.

Consider RRIRIRPPRLPRPRPRPSWMPRP, for which the “shrunken log2 fold change” value was -0.562.
